Results: US20210330740A1 (RUN X, published 2021)

Biological target: T1, BRD2 (Bromodomain-containing protein 2) (UniProt P25440 1-801, limits assumed)
T1 construct: also called Brd2 protein
Assay: co-immunoprecipitation and immunoblotting, time course
Method: Particularly, the antibody targeting RUNX3 (5G4) (Cat #ab40278) was obtained from Abcam (Cambridge, UK), and the antibody was diluted 1:3000. BRD2 (M01; 1:1000; Cat #H00006046-M01, Abnova, Taipei City, Taiwan) was used for immunoblotting and immunoprecipitation. Transient transfection was performed in all cell lines using lipofectamine plus reagent and lipofectamine (Invitrogen). Cell lysates were incubated with an appropriate monoclonal or polyclonal antibody (2 μg of antibody/500 μg of lysate sample) at 4° C. for 3 hours, followed by incubation with protein G-Sepharose beads (Amersham Pharmacia Biotech, Piscataway, N.J., USA). For the detection of endogenous proteins at 4° C. for 1 hour, the lysate was incubated with an appropriate monoclonal or polyclonal antibody (1:1000˜1:3000) at 4° C. for 6 to 12 hours, and then protein G-Sepharose beads (Amersham Pharmacia Biotech) were […] at 4° C. for 3 hours. The immune precipitate was digested on SDS-polyacrylamide gel electrophoresis (SDS-PAGE) gel and transferred to a PVDF membrane (Millipore, Billerica, Mass., USA). The membrane was blocked, immunoblotted with an appropriate antibody, treated with ECL solution (Amersham Pharmacia Biotech), and visualized in Amersham™ Imager 600 (GE Healthcare, Chicago, Ill., USA).

T1 sequence (P25440 whole entry): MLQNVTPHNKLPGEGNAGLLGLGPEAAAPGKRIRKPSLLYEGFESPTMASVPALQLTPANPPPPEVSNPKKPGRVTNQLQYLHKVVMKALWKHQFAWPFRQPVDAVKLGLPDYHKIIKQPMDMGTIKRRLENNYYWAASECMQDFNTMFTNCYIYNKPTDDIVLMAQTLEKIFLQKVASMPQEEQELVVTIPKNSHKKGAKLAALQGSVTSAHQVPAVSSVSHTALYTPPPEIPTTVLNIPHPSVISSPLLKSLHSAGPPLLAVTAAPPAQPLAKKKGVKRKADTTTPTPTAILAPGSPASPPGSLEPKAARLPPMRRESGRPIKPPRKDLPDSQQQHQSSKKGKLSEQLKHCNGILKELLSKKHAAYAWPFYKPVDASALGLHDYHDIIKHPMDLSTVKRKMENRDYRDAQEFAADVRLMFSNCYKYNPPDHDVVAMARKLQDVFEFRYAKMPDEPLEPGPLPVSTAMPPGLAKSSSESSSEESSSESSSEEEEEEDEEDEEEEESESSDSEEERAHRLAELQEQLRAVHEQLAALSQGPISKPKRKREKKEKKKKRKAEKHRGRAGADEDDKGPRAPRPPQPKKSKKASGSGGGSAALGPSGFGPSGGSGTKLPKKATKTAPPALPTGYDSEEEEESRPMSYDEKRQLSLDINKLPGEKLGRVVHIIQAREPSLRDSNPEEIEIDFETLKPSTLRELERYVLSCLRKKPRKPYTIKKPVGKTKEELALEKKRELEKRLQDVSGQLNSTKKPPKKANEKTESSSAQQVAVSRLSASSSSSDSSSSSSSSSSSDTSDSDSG

B1: modified protein in which the 356th serine of Runx3 is substituted with alanine (other, UniProt Q13761 1-415, looked up)
chain: MRIPVDPSTSRRFTPPSPAFPCGGGGGKMGENSGALSAQAAVGPGGRARPEVRSMVDVLADHAGELVRTDSPNFLCSVLPSHWRCNKTLPVAFKVVALGDVPDGTVVTVMAGNDENYSAELRNASAVMKNQVARFNDLRFVGRSGRGKSFTLTITVFTNPTQVATYHRAIKVTVDGPREPRRHRQKLEDQTKPFPDRFGDLERLRMRVTPSTPSPRGSLSTTSHFSSQPQTPIQGTSELNPFSDPRQFDRSFPTLPTLTESRFPDPRMHYPGAMSAAFPYSATPSGTSISSLSVAGMPATSRFHHTYLPPPYPGAPQNQSGPFQANPSPYHLYYGTSSGSYQFSMVAGSSSGGDRAPTRMLASCTSSAASVAAGNLMNPSLGGQSDGVEADGSHSNSPTALSTPGRMDEAVWRPY
notes: also called Runx3 S356A; RUNX3 S356A
Question: How did the “complex maintenance activity, fold against wild-type Runx3” value turn out when B1 was run?
Answer: ≥ 10 times
